Paper PMC5964327

Target: T1, CHIP-myc (wild type), Q9UNE7
T1 chain: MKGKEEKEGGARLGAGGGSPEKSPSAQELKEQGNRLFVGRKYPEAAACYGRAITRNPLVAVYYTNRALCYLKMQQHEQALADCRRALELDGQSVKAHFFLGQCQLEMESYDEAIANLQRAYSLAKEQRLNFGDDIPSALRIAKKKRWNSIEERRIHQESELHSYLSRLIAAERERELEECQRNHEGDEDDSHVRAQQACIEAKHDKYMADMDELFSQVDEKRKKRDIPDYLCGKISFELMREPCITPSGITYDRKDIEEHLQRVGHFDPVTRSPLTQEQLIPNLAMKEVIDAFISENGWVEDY
Assay: co-immunoprecipitation (anti-flag IP, anti-myc immunoblot), quantified
Conditions: chain shown with the change, serum deprived for 24 h, co-transfected with HSP70-V5 and CHIP-myc, read off a plot

B1: NEK10-flag (wild type), Q6ZWH5-1 T812A (protein)
chain: MPDQDKKVKTTEKSTDKQQEITIRDYSDLKRLRCLLNVQSSKQQLPAINFDSAQNSMTKSEPAIRAGGHRARGQWHESTEAVELENFSINYKNERNFSKHPQRKLFQEIFTALVKNRLISREWVNRAPSIHFLRVLICLRLLMRDPCYQEILHSLGGIENLAQYMEIVANEYLGYGEEQHTVDKLVNMTYIFQKLAAVKDQREWVTTSGAHKTLVNLLGARDTNVLLGSLLALASLAESQECREKISELNIVENLLMILHEYDLLSKRLTAELLRLLCAEPQVKEQVKLYEGIPVLLSLLHSDHLKLLWSIVWILVQVCEDPETSVEIRIWGGIKQLLHILQGDRNFVSDHSSIGSLSSANAAGRIQQLHLSEDLSPREIQENTFSLQAACCAALTELVLNDTNAHQVVQENGVYTIAKLILPNKQKNAAKSNLLQCYAFRALRFLFSMERNRPLFKRLFPTDLFEIFIDIGHYVRDISAYEELVSKLNLLVEDELKQIAENIESINQNKAPLKYIGNYAILDHLGSGAFGCVYKVRKHSGQNLLAMKEVNLHNPAFGKDKKDRDSSVRNIVSELTIIKEQLYHPNIVRYYKTFLENDRLYIVMELIEGAPLGEHFSSLKEKHHHFTEERLWKIFIQLCLALRYLHKEKRIVHRDLTPNNIMLGDKDKVTVTDFGLAKQKQENSKLTSVVGTILYSCPEVLKSEPYGEKADVWAVGCILYQMATLSPPFYSTNMLSLATKIVEAVYEPVPEGIYSEKVTDTISRCLTPDAEARPDIVEVSSMISDVMMKYLDNLSTSQLSLEKKLERERRRAQRYFMEANRNTVTCHHELAVLSHETFEKASLSSSSSGAASLKSELSESADLPPEGFQASYGKDEDRACDEILSDDNFNLENAEKDTYSEVDDELDISDNSSSSSSSPLKESTFNILKRSFSASGGERQSQTRDFTGGTGSRPRPALLPLDLLLKVPPHMLRAHIKEIEAELVTGWQSHSLPAVILRNLKDHGPQMGTFLWQASAGIAVSQRKVRQISDPIQQILIQLHKIIYITQLPPALHHNLKRRVIERFKKSLFSQQSNPCNLKSEIKKLSQGSPEPIEPNFFTADYHLLHRSSGGNSLSPNDPTGLPTSIELEEGITYEQMQTVIEEVLEESGYYNFTSNRYHSYPWGTKNHPTKR
Binder B1 has a response (arbitrary units) (+FSK (30'), parent: est. 100) of 5 and a response (arbitrary units) (-FSK, parent: est. 10) of 28.
